Laboratory results as given in PMC5498027.
Positions count from the first letter of the chain named. Names may count otherwise.

B1: human Kif5A, first 560 amino acids, wild type, fused to EGFP and a C-terminal 6xHIS tag, Q12840 S203C (protein)
chain: MAETNNECSIKVLCRFRPLNQAEILRGDKFIPIFQGDDSVVIGGKPYVFDRVFPPNTTQEQVYHACAMQIVKDVLAGYNGTIFAYGQTSSGKTHTMEGKLHDPQLMGIIPRIARDIFNHIYSMDENLEFHIKVSYFEIYLDKIRDLLDVTKTNLSVHEDKNRVPFVKGCTERFVSSPEEILDVIDEGKSNRHVAVTNMNEHSCRSHSIFLINIKQENMETEQKLSGKLYLVDLAGSEKVSKTGAEGAVLDEAKNINKSLSALGNVISALAEGTKSYVPYRDSKMTRILQDSLGGNCRTTMFICCSPSSYNDAETKSTLMFGQRAKTIKNTASVNLELTAEQWKKKYEKEKEKTKAQKETIAKLEAELSRWRNGENVPETERLAGEEAALGAELCEETPVNDNSSIVVRIAPEERQKYEEEIRRLYKQLDDKDDEINQQSQLIEKLKQQMLDQEELLVSTRGDNEKVQRELSHLQSENDAAKDEVKEVLQALEELAVNYDQKSQEVEEKSQQNQLLVDELSQKVATMLSLESELQRLQEVSGHQRKRIAEVLNGLMKDLSE
B2: human Kif5A, first 560 amino acids, wild type, fused to EGFP and a C-terminal 6xHIS tag, Q12840 S202N (protein)
chain: B1 chain with S202N, C203S
B3: human Kif5A, first 560 amino acids, wild type, fused to EGFP and a C-terminal 6xHIS tag, Q12840 M198T (protein)
chain: B1 chain with M198T, C203S
B4: human Kif5A, first 560 amino acids, wild type, fused to EGFP and a C-terminal 6xHIS tag, Q12840 R204W (protein)
chain: B1 chain with C203S, R204W
B5: human Kif5A, first 560 amino acids, wild type, fused to EGFP and a C-terminal 6xHIS tag, Q12840 R204Q (protein)
chain: B1 chain with C203S, R204Q
B6: human Kif5A, first 560 amino acids, wild type, fused to EGFP and a C-terminal 6xHIS tag, Q12840 E251K (protein)
chain: B1 chain with C203S, E251K

Target: T1, taxol-stabilized microtubules polymerized from bovine brain tubulin, Q6B856
T1 sequence (chain, as listed by the source, chain 1 of 2): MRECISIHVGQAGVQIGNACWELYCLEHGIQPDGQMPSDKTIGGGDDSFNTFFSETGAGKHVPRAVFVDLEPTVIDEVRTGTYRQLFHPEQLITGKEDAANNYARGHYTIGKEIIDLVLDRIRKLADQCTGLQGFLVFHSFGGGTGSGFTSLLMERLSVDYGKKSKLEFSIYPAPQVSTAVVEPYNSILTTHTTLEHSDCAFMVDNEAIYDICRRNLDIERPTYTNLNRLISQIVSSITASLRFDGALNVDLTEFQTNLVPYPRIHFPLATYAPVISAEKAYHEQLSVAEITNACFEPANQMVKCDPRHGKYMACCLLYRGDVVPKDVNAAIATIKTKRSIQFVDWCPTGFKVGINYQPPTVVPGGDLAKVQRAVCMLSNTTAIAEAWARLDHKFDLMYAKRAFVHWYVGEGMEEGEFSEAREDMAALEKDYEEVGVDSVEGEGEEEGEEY
T1 sequence (Q6B856 whole entry, chain 2 of 2): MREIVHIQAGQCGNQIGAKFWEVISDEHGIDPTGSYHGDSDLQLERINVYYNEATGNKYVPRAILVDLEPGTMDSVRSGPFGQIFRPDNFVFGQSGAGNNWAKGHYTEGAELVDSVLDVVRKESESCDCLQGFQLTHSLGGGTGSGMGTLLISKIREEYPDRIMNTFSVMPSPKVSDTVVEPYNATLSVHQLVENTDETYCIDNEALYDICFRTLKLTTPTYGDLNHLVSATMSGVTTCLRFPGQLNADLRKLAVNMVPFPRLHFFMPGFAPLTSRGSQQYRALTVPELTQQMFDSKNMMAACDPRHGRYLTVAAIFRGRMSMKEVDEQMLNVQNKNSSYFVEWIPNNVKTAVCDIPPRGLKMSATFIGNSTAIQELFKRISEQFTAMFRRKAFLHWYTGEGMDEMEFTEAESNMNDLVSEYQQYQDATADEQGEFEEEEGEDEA
Assay: MT pelleting assay (western blot densitometry)
Conditions: chain shown with the change; 5 mM AMPPNP; 2 µM tubulin; read off a plot

Row | Binder | response (fraction Kif5A bound)
1 | B1 | 0.7
2 | B2 | 0.9
3 | B3 | 0.94
4 | B4 | 0.44
5 | B5 | 0.8
6 | B6 | 0.56

Same assay, conditions: chain shown with the change; 5 mM AMPPNP; 4 µM tubulin; read off a plot

Row | Binder | response (fraction Kif5A bound)
7 | B1 | 0.83
8 | B2 | 0.91
9 | B3 | 0.95
10 | B4 | 0.41
11 | B5 | 0.73
12 | B6 | 0.63

Same assay, conditions: chain shown with the change; 5 mM AMPPNP; 8 µM tubulin; read off a plot

Row | Binder | response (fraction Kif5A bound)
13 | B1 | 0.8
14 | B2 | 0.95
15 | B3 | 0.94
16 | B4 | 0.36
17 | B5 | 0.76
18 | B6 | 0.73

Target: T1, taxol-stabilized microtubules …
Assay: MT pelleting assay (western blot densitometry), fitted curve
Conditions: chain shown with the change; 5 mM AMPPNP; fitted curve read at 8 µM tubulin; parent: est. 0.95; read off a plot

Row | Binder | response (fraction Kif5A bound)
19 | B1 | 0.86
20 | B2 | 1
21 | B3 | 1
22 | B4 | 0.47
23 | B5 | 0.79
24 | B6 | 0.74
